Experimental data reported in the DeepSol protein solubility set.

Test: soluble on expression in E. coli; label from the status in PepcDB or PDB records

| Sequence | soluble on expression in E. coli |
| --- | --- |
| MTFAWGRGSHGGAGMRIVQITDTHFSPTKAHFNGNWAPLAAWIEQSGADLVIHTGDLSVDGADRDDDIAFCMDLMREISAPMLLVPGNHDVGHLPGSLQPVNAGRLERWRRLVGPDYWMEDAGSWRLIGLDSLLMGFDDAEEEAQFDWLRTVLESRGGRRVALFAHKPLFVDAPGEGDTGYWSVRPAQRQRLYDLIATHDVALFASGHLHRAWQGKYENTSLVWGPSAAFVVGDMERDMPGERLLGAVIHQFSDTVTSEIVAIPGMTAYVLDDVVAEVYPHEAHKARKRVASLEHHHHHH | not soluble |
| AHHHHHHGSKIPDDVRKDIPLTQEVIYFDNTATSLTPKPVIEAMDEYYLKYRANVHRGVHRLSQMATQKYEESRKVVADFINAKFEEIVFTKNTSESLNLVALGLEHTFKKGDKIVTTPYEHHSNLLPWQRLAKKLGLKLEFIEGDDEGNLDLSDAEKKIKGAKLVAVQHVSNALGVIHEVEELGRMAKEEGAIFVVDAAQSVGHMEVDVKKLNADFLAFSGHKGPMGPTGIGVLFISEEYFDVFDPPLIGGGTIEDVDLCCYKLTEPPERFEAGTPNIGGAIGLAAGIKYIEKIGIEKIEKQERKLVKRTTEGLDELEIPWYGPRNLDKHAGVVSFNVPPLHPHDVAAVLDEHKIMVRSGHHCALPVMKKLGINGTVRASFHVYNSVEEVEIFLGVLEDLVRKIRGAL | soluble |
| MAGVKAYELRTKSKEQLASQLVDLKKELAELKVQKLSRPSLPKIKTVRKSIACVLTVINEQQREAVRQLYKGKKYQPKDLRAKKTRALRRALTKFEASQVTEKQRKKQIAFPQRKYAIKA | soluble |
| MGSDKIHHHHHHMSQVVIAVLANAGGVGKSTLSVHLAYEVSRRKLKVALLDLDPQRSLDVFCGLEAAEAEKTMFKVLSKDFIGDWALASAWDEPRIEVCQGHPLLAEIANELVIRKRGEYMLADRLQKYSLPHDLVIVDCPATLGMLNVNALAAATHILVPIQLEMKAISGSAELVEWCMNTSEELQLTPKPQILGFVPSMYDETVAMHRQYHSQLPEIALQLDIKLYPKIRSSNEFKNASAHGLPLHKYRNKHPACKDFKQIADDVIQLIKNK | not soluble |
| MVSQTERQHAIASLLAPTGAVSVGDLAEHFHVTTETVRRDLRIMESLGLLQRVHGGAISPEPMGTSPPRLKPALGKGMPPEPRVLELAETAVSLITPLARSIFLDSGLACTAIATVLGDPPEDARWTVVTSSPGAVIALSATDATSTVVLHGQVHGNCSSIIGSTAVDMISQLRADIAFVEVDAIQSDTSLCTFFPETIPIKQAMIKNAAFTVAVLSPRSPQDQELQLLKHPFSTLADFDALVTDDHTLDFPVLPDHNFQVVTPLEHHHHHH | soluble |
| MVKFIHCADLHLDSPFKSKSYLSPNIFEDVQKSAYESFKNIVDLALKQEVDFIIIAGDLFDSENRTLRAEVFLNEQFERLRKEQIFVYICHGNHDPLTSKITSQWPNNVSVFSNQVETYQAITKSGETIYIHGFSYQNDASYENKIDAYPSSQGQKGIHIGVLHGTYSKSSVKDRYTEFRLEDLNQRLYHYWALGHIHQREQLSDMPVINYPGNIQGRHFNELGEKGCLLVEGDHLKLTTQFYPTQFIKFEEATIETDHTSKQGLYDVIQSFKDKVRTEGKSFYRLNVRINSEDIIAPQDLIQLKEMITEFEENENQFVFIEDLNLQYVQNDEMPIVKEFSPELLDDASLFDSAMTDLYLNPRASKFLDDYNEFDKVELVNHAERLLKDEMRGEQNDN | not soluble |
| MSLIEFNKKTNTLEQVQYKYTLQDVSEPNLYRDIFSYDEIPKCTFNHRKVPMAPPDEIWITDTTFRDGQQSRAPYTVEQIVHLYDLLHKLGGPKGIIRQCEFFLYSDRDKQAVYKCLERGYKYPEVTSWIRATKSDFQLAKDMGMKESGILVSCSDYHIFKKLNMTRKQALEHYMSIVKSAIEVGIRPRCHFEDITRADFYGFVVPFAIELRKLMEESGVPIKIRACDTLGYGVSYPGAALPRSVPGIIYGLRHYAGFPSELIEWHGHNDFYKAVCNAATAWLYGASAVNCSLLGIGERTGNTPLEAMVIEYAQLRGTTDSMDTTVITEIAEYYEKELGYQIPPRTPFVGKHFNVTQAGIHADGLLKDEEIYNIFDTAKLLNRPVGVAINQTSGLAGIAHWINSHFGLEGAKRIDKRDERIVKIKEWVDEQYKAGRVTSIGDDELEEVIRKLAPEIFDLALEGHHHHHH | soluble |
| MAKAKTQFVCQNCGTVHNRWAGKCEGCGEWNTIVEEDPMGGIGSGPGKVPKKGRPVTLTSLSGEIEEAPRIPTGISELDRATGGGFVRGSAVLIGGDPGIGKSTLLMQAAAALSRRGHRVIYVSGEEAVAQVRLRAQRLGSADTDVLLAAETNVEDILATVSEGKRPDLIIIDSIQTLWSDTADSAPGTVTQVRTGVQAMIRFAKQTGATMVLVGHVTKEGQIAGPRVVEHMVDAVLYFEGDRGHHYRILRTVKNRFGPTDEIGVFEMSDGGLREVSNPSELFLGERNEKSPGAAVFAGIEGTRPVLVEVQALVAATSLGTPRRAVVGWDSSRLAMILAVLEAHCGVKLGQHDVYLNVAGGYRISEPAADMAIASALVSSLAGLALPADCVYFGEISLSGAVRPVAHTVQRLKEAEKLGFSAALLPSGSAELPKAGKGRWTEIESLPDLVAHIAGSGNRFKQVEDDEY | not soluble |
| MGSDKIHHHHHHMILFGTGGIRGVMRKGEFDEETVKRASLSTALWLKEKGQKSVVIAYDTRKNSKEFAELAGRVFAGEGIEAYVFPEPTPTPVLSFAVRYMKTGGGVVITASHNPPEYNGYKVYTWDGVQAIPEYTNEITEIYKKVDLSHVKEGEIKFVPPEVKESYIKAVLEIVSNLPMKTDLDIAYSPLHGTGANYVPEVLKRLGFKVRLVEEQMKPDPNFSTVPTPNPEEDEALVLLNKKGATLGLATDPDCDRVGVVFKGRRLTGNQVGVLLTDFLLDHVKVENPLVIKTIVTTDMVRPICEEKGAFLEETPTGFKFIGHLIEEHTKKGDRNFVFGFEESCGYLAGNHARDKDGVVGSVLSAVAFSNYDPYEKLEELYQKYGYYMEKLINFKFEDVDRAVEIYRSLKNYDGIIDYSKGYGNVIPNETIAFVFEKSRIFVRPSGTEPKLKVYIHVRGDTREEAEELMKESESKIKEILKL | not soluble |
| MGSDKIHHHHHHMAKQKDGFLGEQALVLPPAIVQRMKTDPATSILYITDIGYYPKAYNHFRERETPIDQYVFIYCTEGRGWFSLDGQKHPVVPNQYFILPAGLPHAYGADEKEPWTIYWIHFGGTLAPLYCTHRTCRLTDIKPGMHSRISYRTELFEEIFRVLKMGYSLENLSYASSVFHHYLGSLRYLREYREAFSEHRPAGEEDPVNAAIHYMKENLGKKLTLAELADYTGYSSSYFSNLFLKRTGYAPLSYFNQIKIQKACQFLDFTDMKVNQVCYRVGIEDAYYFSRLFSQIMGMSPREYKKVKKG | not soluble |
| MQPYLIPQPGIRVSLSELIEMRHRVREVQLFSTPSRRSPLIGLHHSKLRGRGVDFDQVRVYQAGDDVRSIDWRVTARTQEPHTKLFHEERERPIFILVEQSRRLFFGSGLMFKSVLAAQAAALIGWAALEHNDRVGGLVFGDNEHYEIKPRRSKQSLLQLLNRLVRVNQSLHTEIPADRDAFGTALRRAREVLRPGSLVIVLCDERALSDVAEQQLSLLSRHSDLLLLPLSDPLDRALPAAGLLRFAERGAQLELDTLNPELRRAYRQQGEDRSARWELLAQKLRVLLMPLSTQSELVEQLREYLNAQRPVKRK | not soluble |
| EAVIVVDERDVVIDLNPQAKAIIGTPGAAWIGRPLEDVLPGLIELRDSPTDDIPDRAEITVPVNGEERAYEVRQTPLHRGYGTVTGQLITLTD | not soluble |
| EKTEQEQILIPVANPDTIEDLINLALVIRDTKQKKELIALNVINDNNNSENKELQGKRNLEKAAMIAASADVSVNMVSRYDLNIASGIIHTIKEYDATDVVIGLHRKANIVDSFFGNLAESLLKGTHREVIIAKFLMPVN | not soluble |
| MGSDKIHHHHHHVVIGFFKKLFNVRDRNEQAKFTGITTAEKRQQTKPQTPVPAIEVTEHQAVESQLDLSALFYSLLFATPSTTTTGIANNLERSVMQNIEQALSSPQSIAENVLKLPSKILELDKKLGDDNIETQELILLIEQDPLLCVEVLKLCNSPAFKRADTDVSSIQQALVQVGRQQLRQFITACLARELIDIKPIYFRRFGAEIWRHSMQVAFLASELASNEQRDSAFLLGLLHDVGKIAIFKMLVDAFYQAEPGEQPNSILFKQVMTTKSLTLSALLARSWQLSQHFETPLTLLANTNIKPTDGMTLLIWKANIISECSMLLQVDKLPQPALAVLLAQVECSEEDFIELHQKLIQF | not soluble |
| ATPAAQASDDRYEVTQQRNPDAACLDCHKPDTEGMHGKHASVINPNNKLPVTCTNCHGQPSPQHREGVKDVMRFNEPMYKVGEQNSVCMSCHLPEQLQKAFWPHDVHVTKVACASCHSLHPQQDTMQTLSDKGRIKICVDCHSDQRTNPNFNPASVPLLKEQP | soluble |
| MGSDKIHHHHHHMLRECDYSQALLEQVNQAISDKTPLVIQGSNSKAFLGRPVTGQTLDVRCHRGIVNYDPTELVITARVGTPLVTIEAALESAGQMLPCEPPHYGEEATWGGMVACGLAGPRRPWSGSVRDFVLGTRIITGAGKHLRFGGEVMKNVAGYDLSRLMVGSYGCLGVLTEISMKVLPRPRASLSLRREISLQEAMSEIAEWQLQPLPISGLCYFDNALWIRLEGGEGSVKAARELLGGEEVAGQFWQQLREQQLPFFSLPGTLWRISLPSDAPMMDLPGEQLIDWGGALRWLKSTAEDNQIHRIARNAGGHATRFSAGDGGFAPLSAPLFRYHQQLKQQLDPCGVFNPGRMYAEL | not soluble |
| VQEPLRVPPSAPARLVVLASGTGSLLRSLLDAAVGDYPARVVAVGVDRECRAAEIAAEASVPVFTVRLADHPSRDAWDVAITAATAAHEPDLVVSAGFMRILGPQFLSRFYGRTLNTHPALLPAFPGTHGVADALAYGVKVTGATVHLVDAGTDTGPILAQQPVPVLDGDDEETLHERIKVTERRLLVAAVAALATHGVTVVGRTATMGRKVTIG | soluble |
| MGSDKIHHHHHHMAEKFDAIVVGAGPAGNAAAYTMAKAGLSVLQLERGETPGTKNVQGAILYADALERIIPDFRDDAPLERHIIEQRMWVLDEKSFIGTNYRSDAFNSDQPNRYTILRAPFDKWFSGKVKEAGALVICETTVTELIQEGKKVIGVRTDREGGDIYADVVILADGVNSLLAKKAGFHGELEAKNVALAVKEIHFLPEEIVQSRFNIKGNEGVVIEIAGAVTHGMVGTAFLYTNKESITLGIGCLLSDFKNAGIAPYTLLEKLKAHPAIAPLIEGGEMKEYAAHLIPEGGYKAVPTLYGEGWMIAGDSAGLVNAVHREGSNLAMTSGRLAAETVIALKEMKLPCTAPHLARYKTALDDSFVMKDLRKYKELPDILHGNPHFFSVYPQLLNRAAHTMLMVDGQDKHSKEKTIRGSFVQQRSLWGLVGDAYRMWRATR | not soluble |
| MGHHHHHHSHMDNCLAAAALNGVDRRSLQRSARLALEVLERAKRRAVDWHALERPKGCMGVLAREAPHLEKQPAAGPQRVLPGEREERPPTLSASFRTMAEFMDYTSSQCGKYYSSVPEEGGATHVYRYHRGESKLHMCLDIGNGQRKDRKKTSLGPGGSYQISEHAPEASQPAENISKDLYIEVYPGTYSVTVGSNDLTKKTHVVAVDSGQSVDLVFPV | not soluble |
| MKCPFCAHPDTRVADSRLMEERNAVRRRRHCPNCGKRFGTLETAELKMPAVIGPDKKRSPFNAQRLRNDLTAAARKSALTPEQIDETVRLTEHRLYTSGQRDIPSAALADMVLKELLRQDTEAAVRFAALHKRFDNPADFASWLAQAVKTGGKA | not soluble |
